Details in all cases: tags: endogenous on Ramos Burkitt's lymphoma cells; label: 5' FITC or Cy3; stem-loop hairpin
Data set [1] addresses T1, membrane-bound IgM (mIgM, immunoglobulin heavy mu chain of B-cell receptor) (Homo sapiens, UniProt P01871 P01871:1-474). The data set can be described thus: flow; Bmax/2 on Ramos cells, 4 C, 5 mM MgCl2. The protocol: (§1) All the in vitro experiments were done using a binding buffer composed of RPMI 1640 and 4.5 g/L glucose (Sigma-Aldrich) and 5 mM MgCl₂ for monomers, 20 mM MgCl₂ for multimers (Sigma-Aldrich), 100 mg/L tRNA (Sigma-Aldrich), 100 mg/L single stranded DNA (Sigma-Aldrich), 100 mg/L BSA (Sigma-Aldrich) and binding was analyzed for binding using flow cytometry in binding buffer (Acurri C6) using binding buffer. We used 20 mM Mg⁺² for optimal for the folding of the aptamer in vitro and 5 mM Mg⁺² for experiments in vivo. The binding buffer consists of tRNA and single stranded DNA that are capable of scavenging Mg⁺² thereby reducing the effective concentration of Mg ions. […]
(§2) Cell Binding Assays. Affinity of each construct was evaluated by incubating Ramos cells (2.5×10⁵) with a series of FITC or Cy3 labeled constructs in a 50 μL of binding buffer on ice for 45 min Cells were then washed with lmL of wash buffer at 4° C. and resuspended in 100 μL of wash buffer. The binding of the constructs was analyzed using flow cytometry by counting 10,000 events for each concentration. […] Binding at respective concentrations and absolute fluorescence intensity difference was used for the binding curves. When calculating the relative binding constant, binding curves were fitted with median fluorescence intensity observed for each histogram and observed Bmax/2 was used as the binding constant. […]

Data set [2] concerns the target T1, membrane-bound IgM (mIgM, …). The data set can be described thus: flow; Bmax/2 on Ramos cells, 4 C. The protocol: as §1, §2
For data set [3] the target is unchanged. The data set is described as follows: flow; Bmax/2 (Kd') on Ramos cells, 4 C, 5 mM MgCl2. Here is the method:
as §1, §2

T1 sequence (P01871 whole entry, one chain of several): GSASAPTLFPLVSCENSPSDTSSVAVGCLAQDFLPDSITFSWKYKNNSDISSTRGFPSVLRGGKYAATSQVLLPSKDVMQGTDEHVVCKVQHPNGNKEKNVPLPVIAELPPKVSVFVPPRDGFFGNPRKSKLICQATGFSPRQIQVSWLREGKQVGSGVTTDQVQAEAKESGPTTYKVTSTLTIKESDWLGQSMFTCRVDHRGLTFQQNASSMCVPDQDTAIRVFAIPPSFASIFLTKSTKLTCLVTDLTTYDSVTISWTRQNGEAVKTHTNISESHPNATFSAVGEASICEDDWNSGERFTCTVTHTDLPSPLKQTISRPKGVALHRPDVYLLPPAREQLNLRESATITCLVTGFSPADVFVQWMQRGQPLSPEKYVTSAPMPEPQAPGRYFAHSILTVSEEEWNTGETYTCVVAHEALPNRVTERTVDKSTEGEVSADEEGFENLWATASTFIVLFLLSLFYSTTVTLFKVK

B1: TD05.7 (ssDNA)
DNA: CGTGGAGGATAGTTCGGTGGCTTCAGGGTCTCCTCCCG
Take B1: the dissociation constant (Kd) (in general, the constant that tells how readily two partners part at equilibrium) in data set [1] was 148 nM.

B2: TD05.1 (ssDNA)
DNA: AGGAGGATAGTTCGGTGGCTGTTCAGGGTCTCCTCCT
Take B2: the affinity in data set [1], expressed as Kd, was 53 nM.

B3: TD05.17 (ssDNA)
DNA: B2 DNA
modifications: LNA at last four nucleotides (3' stem pyrimidines TCCT) [34,35,36,37 (LNA)]
In data set [2], B3 yielded a dissociation constant Kd of 43 nM.

B4: TD05 (ssDNA)
DNA: ACCGTGGAGGATAGTTCGGTGGCTGTTCAGGGTCTCCTCCACGGT
Molecule B4 registered a Kd in data set [3] of 359 nM.
